Data on five proteins can be found in article PMC6646356, “The AAA + ATPase TorsinA polymerizes into hollow helical tubes with 8.5 subunits per turn” (Nature Communications, 2019).

Series [1] concerns the molecule itself. The series is described as follows: SEC; gel filtration of affinity-purified MBP-TorsinA; self-association, elution in the void volume. (In general: SEC sorts molecules by how far they enter the pores of the column.)
Series [2] concerns the molecule itself. The experiment in a line: negative-stain electron microscopy; purified TorsinA variants without liposomes, diluted in ATP-containing buffer (HEPES/NaOH pH 8.0, NaCl, 10 mM MgCl2, ATP), 2% uranyl acetate stain; filament formation (self-polymerisation); MBP tag uncleaved or cleaved with 3C protease.

B1: MBP-TorsinA (human TorsinA residues 51–332, N-terminally MBP-tagged) (domain or fragment, UniProt O14656 51-332, looked up)
chain: GQKRSLSREALQKDLDDNLFGQHLAKKIILNAVFGFINNPKPKKPLTLSLHGWTGTGKNFVSKIIAENIYEGGLNSDYVHLFVATLHFPHASNITLYKDQLQLWIRGNVSACARSIFIFDEMDKMHAGLIDAIKPFLDYYDLVDGVSYQKAMFIFLSNAGAERITDVALDFWRSGKQREDIKLKDIEHALSVSVFNNKNSGFWHSSLIDRNLIDYFVPFLPLEYKHLKMCIRVEMQSRGYEIDEDIVSRVAEEMTFFPKEERVFSDKGCKTVFTKLDYYYDD
notes: TorsinA, human, residues 51-332; MBP tag is cleavable by human rhinovirus 3C protease; uncleaved in this form; Forms helical polymers of no fixed size; also called MBP-tagged TorsinA; wild-type; source: E. coli LOBSTR(DE3) RIL, purified (amylose resin); not shown: MBP, N-terminal, kept
For B1, the binding result in series [1] is listed as “binds”.

B2: TorsinA (human, residues 51–332), MBP cleaved with 3C protease (domain or fragment, UniProt O14656 51-332, looked up)
chain: GQKRSLSREALQKDLDDNLFGQHLAKKIILNAVFGFINNPKPKKPLTLSLHGWTGTGKNFVSKIIAENIYEGGLNSDYVHLFVATLHFPHASNITLYKDQLQLWIRGNVSACARSIFIFDEMDKMHAGLIDAIKPFLDYYDLVDGVSYQKAMFIFLSNAGAERITDVALDFWRSGKQREDIKLKDIEHALSVSVFNNKNSGFWHSSLIDRNLIDYFVPFLPLEYKHLKMCIRVEMQSRGYEIDEDIVSRVAEEMTFFPKEERVFSDKGCKTVFTKLDYYYDD
notes: TorsinA, human, residues 51-332; Helical polymer, 8.5 subunits per turn; nucleotide modeled as ATP; also called TorsinA filaments; TorsinA polymers; source: E. coli LOBSTR(DE3) RIL, purified (amylose resin), MBP cleaved with 3C protease during dialysis; not shown: MBP, N-terminal, cleaved
B2: the binding result in series [2] is “binds”.

B3: TorsinA K174A (domain or fragment, human, UniProt O14656 51-332, looked up)
chain: GQKRSLSREALQKDLDDNLFGQHLAKKIILNAVFGFINNPKPKKPLTLSLHGWTGTGKNFVSKIIAENIYEGGLNSDYVHLFVATLHFPHASNITLYKDQLQLWIRGNVSACARSIFIFDEMDAMHAGLIDAIKPFLDYYDLVDGVSYQKAMFIFLSNAGAERITDVALDFWRSGKQREDIKLKDIEHALSVSVFNNKNSGFWHSSLIDRNLIDYFVPFLPLEYKHLKMCIRVEMQSRGYEIDEDIVSRVAEEMTFFPKEERVFSDKGCKTVFTKLDYYYDD
notes: TorsinA, human, residues 51-332; source: E. coli LOBSTR(DE3) RIL, purified (amylose resin)
For the protein B3, the binding result in series [2] is “binds”.

B4: TorsinA K174E (domain or fragment, human, UniProt O14656 51-332, looked up)
chain: GQKRSLSREALQKDLDDNLFGQHLAKKIILNAVFGFINNPKPKKPLTLSLHGWTGTGKNFVSKIIAENIYEGGLNSDYVHLFVATLHFPHASNITLYKDQLQLWIRGNVSACARSIFIFDEMDEMHAGLIDAIKPFLDYYDLVDGVSYQKAMFIFLSNAGAERITDVALDFWRSGKQREDIKLKDIEHALSVSVFNNKNSGFWHSSLIDRNLIDYFVPFLPLEYKHLKMCIRVEMQSRGYEIDEDIVSRVAEEMTFFPKEERVFSDKGCKTVFTKLDYYYDD
notes: as for B3
In the case of B4, the binding result in series [2] is “binds”.

B5: TorsinA H140N (domain or fragment, human, UniProt O14656 51-332, looked up)
chain: GQKRSLSREALQKDLDDNLFGQHLAKKIILNAVFGFINNPKPKKPLTLSLHGWTGTGKNFVSKIIAENIYEGGLNSDYVHLFVATLHFPNASNITLYKDQLQLWIRGNVSACARSIFIFDEMDKMHAGLIDAIKPFLDYYDLVDGVSYQKAMFIFLSNAGAERITDVALDFWRSGKQREDIKLKDIEHALSVSVFNNKNSGFWHSSLIDRNLIDYFVPFLPLEYKHLKMCIRVEMQSRGYEIDEDIVSRVAEEMTFFPKEERVFSDKGCKTVFTKLDYYYDD
notes: as for B3
As for B5, the binding result in series [2] is “binds”.
